Assay results published in paper PMC12520519, “RESP2: An Uncertainty Aware Multi‐Target Multi‐Property Optimization AI Pipeline for Antibody Discovery” (Advanced Science, 2025).

Target: T1, receptor binding domain (RBD) of the SARS-CoV-2 spike protein, Delta variant (SARS-CoV-2, Delta (B.1.617.2), strain)
T1 construct: also called Delta RBD; source: bought: Acro Biosystems
Assay: flow cytometry on cells
Settings: one partner purified

B1: Delta-6 scFv (scFv, V domains shown)
VH: EVQLLESGGGLVQPGGTLRLSCAASGFIVSSNYMSWVRQAPGKGLEWVSLVYPGGSTYYADSVKGRFTVSRDNSKNTLYLQMNSLRAEDMAVYYCARDLPSGVDAVDAFDIWGQGTMVTVSS
VL: DIRVTQSPSSLSASVGDRVSITCRASQIISGYLNWYQQKPGSAPQLLIYASSSLQSGVPPRFSGSRSGTEFTLTISSLQPEDFATYYCQQTYSIPFTFGPGTKVDIK
notes: also called WT Delta-6 scFv; starting clone
Q: For B1, which Kd is on record?
A: 1.3 nM
